From patent publication US20190330333A1 (KAO, published 2019)
Where no end group is shown, it is not given here.

What was measured:
[1] = target: T1, PEGylated N-terminus 15 amino acids of active GIP (GIP(1-15)), antigen (1) for measurement (also: PEGylated, position not given here); assay: ELISA, immobilized peptide antigen, hybridoma culture supernatant
T1 construct: Immobilized on the ELISA plate; The assay antigen carries no KLH; only the immunogen was KLH-linked; also called PEGylated GIP(1-15)
T1 peptide: YAEGTFISDYSIAMD
Protocol: (§1) The reaction between the hybridoma culture supernatant and the antigen (1) and (2) for measurement was evaluated by ELISA using immobilized antigen (1) and (2), and hybridomas that are positive for the antigen (1) and negative for the antigen (2) were selected as anti-active GIP monoclonal antibody-producing hybridomas.
(§2) Antibody-producing hybridoma was cloned by culturing the hybridomas obtained above through a limiting dilution method to obtain single colonies, and single colony-forming wells were subjected to ELISA again to establish 9B9H5-B9 line, which produces an antibody that is positive for the antigen (1) and negative for the antigen (2) (WO 2016/104439).

[2] = target: T2, PEGylated N-terminus 13 amino acids of inactive GIP (GIP(3-15)), antigen (2) for measurement (also: PEGylated, position not given here); assay: as above
T2 construct: Immobilized on the ELISA plate; also called PEGylated GIP(3-15)
T2 peptide: EGTFISDYSIAMD
Protocol: as §1, §2

inactive GIP, GIP(3-42) = target: T3, inactive GIP, GIP(3-42); assay: sandwich ELISA, anti-total GIP mAb capture, biotinylated antibody at 1 ug/mL as detection
T3 peptide: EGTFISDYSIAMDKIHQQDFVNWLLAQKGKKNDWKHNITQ
Protocol: (§3) The reactivity between the monoclonal antibody prepared in Production Example 1 and active GIP was confirmed by ELISA. The amino group of the anti-active GIP monoclonal antibody was biotinylated with NH2 group biotinylation kit (manufactured by Dojindo Laboratories). ELISA was performed using the produced biotinylated anti-active GIP monoclonal antibody at 1 μg/mL instead of a detection antibody, GIP detection antibody (biotinylated anti-total GIP monoclonal antibody), included in Human (total) GIP ELISA kit (manufactured by EMD Millipore Corporation). A […] dilution series of GIP(1-42) or GIP(3-42) was prepared in 6 steps (8.2 to 2000 pg/mL) with a 2000 pg/mL solution as the highest concentration. By using an anti-total GIP monoclonal antibody (included in Human GIP (total) ELISA kit manufactured by EMD Millipore Corporation) as a capture antibody, the biotinylated anti-active GIP monoclonal antibody as a detection antibody, and a peroxidase-streptavidin conjugate for detection, sandwich ELISA was conducted to prepare a calibration curve with GIP concentration on the X-axis and 450 nm-590 nm absorbance on the Y-axis (FIG. 1).

active GIP, GIP(1-42) = target: T4, active GIP, GIP(1-42); assay: sandwich ELISA, anti-total GIP mAb capture, biotinylated antibody at 1 ug/mL as detection, GIP 8.2 to 2000 pg/mL
T4 construct: The assay was built on a Human (total) GIP ELISA kit
T4 peptide: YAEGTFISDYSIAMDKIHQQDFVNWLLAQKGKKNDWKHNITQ
Protocol: as §3

binding result [1]: binds | binding result [2]: no binding | binding result (inactive GIP, GIP(3-42)): no binding | binding result (active GIP, GIP(1-42)): binds
B1: anti-active GIP monoclonal antibody produced by hybridoma 9B9H5-B9 line (Production Example 1) (antibody, V domains shown)
VH: QVQLQQPGAELVKPGASVKLSCKASGYTFTSFWMHWVIQRPGQGLEWIGEMNPSDGRTHFNEKFKTKATLTIDTSSNTAYMELNSLTSEDSAVYYCARRMEDWGQGTLVTVSA
VL: DIKMTQSPSSMYASLGERVTITCKASQDINSYLGWFQQKPGKSPKTLIYGANRLVDGVPSRFSGSGSGQDYSLTISSLEYDDMGIYYCLQYDEFPLTFGAGTKLELKR
notes: Mouse (BALB/c) hybridoma monoclonal antibody; Culture supernatant was used in the screening and cloning ELISA; also called anti-active GIP antibody
